The text below walks through data of patent US20180155451A1 (published 2018).

T1: FcγRIIb (human, UniProt P31994 43-217)
T1 construct: extracellular domain; for crystallography expressed with Kifunesine and trimmed with Endo F1; also called FcgRIIb; FcgR2b; not shown: His tag attached to the C terminus
T1 sequence (looked up): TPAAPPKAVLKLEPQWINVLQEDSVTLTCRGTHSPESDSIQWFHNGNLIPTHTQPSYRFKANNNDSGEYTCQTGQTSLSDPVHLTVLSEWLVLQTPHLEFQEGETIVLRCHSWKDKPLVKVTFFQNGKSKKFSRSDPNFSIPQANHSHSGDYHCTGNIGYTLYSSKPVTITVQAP

T2: FcγRIIa H (FcγRIIa, allotype with His at position 131), extracellular domain with C-terminal His tag (human, UniProt P12318 34-217)
T2 construct: extracellular domain; Soluble receptor expressed in FreeStyle293 cells and used as the analyte in Biacore; also called FcgRIIa H; FcγRIIa type H; not shown: His tag attached to the C terminus
T2 sequence (looked up): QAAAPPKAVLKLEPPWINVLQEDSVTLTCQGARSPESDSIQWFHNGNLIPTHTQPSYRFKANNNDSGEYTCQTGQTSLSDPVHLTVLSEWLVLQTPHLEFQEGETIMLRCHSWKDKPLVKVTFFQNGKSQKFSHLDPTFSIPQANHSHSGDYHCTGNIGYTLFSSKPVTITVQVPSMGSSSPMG

B1: GpH7-A5/GpH7-B3/GpL16-k0 (antibody, human IgG1, kappa)
heavy 1: not shown
heavy 2: not shown
light: DIVMTQSPLSLPVTPGEPASISCQASESLVHSNRNTYLHWYLQKPGQSPQLLIYKVSNRFSGVPDRFSGSGSGTDFTLKISRVEAEDVGVYYCSQNTHVPPTFGQGTKVEIERTVAAPSVFIFPPSDEQLKSGTASVVCLLNNFYPREAKVQWKVDNALQSGNSQESVTEQDSKDSTYSLSSTLTLSKADYEKHKVYACEVTHQGLSSPVTKSFNRGEC
notes: also called HeCon Ab; control heterodimerized antibody
B2: GpH7-A5/GpH7-B80/GpL16-k0 (antibody, human IgG1, kappa)
heavy 1: not shown
heavy 2: not shown
light: B1 light
notes: Heterodimerized anti-glypican-3 IgG1
B3: GpH7-A44/GpH7-B80/GpL16-k0 (antibody, human IgG1, kappa)
heavy 1: QVQLVQSGAEVKKPGASVTVSCKASGYTFTDYEMHWIRQPPGEGLEWIGAIDPKTGDTAYSESFQDRVTLTADKSTSTAYMELSSLTSEDTAVYYCTRFYSYTYWGQGTLVTVSSASTKGPSVFPLAPSSKSTSGGTAALGCLVKDYFPEPVTVSWNSGALTSGVHTFPAVLQSSGLYSLSSVVTVPSSSLGTQTYICNVNHKPSNTKVDKKVEPKSCDKTHTCPPCPAPELLGGPSVFLFPPKPKDTLMISRTPEVTCVVVDVSHEDPEVKFNWYVDGVEVHNAKTKPREEQYNSTYRVVSVLTVLHQDWLNGKEYKCKVSNKALPAPEEKTISKAKGQPREPQVYTLPPSRKELTKNQVSLTCLVKGFYPSDIAVEWESNGQPENNYKTTPPVLDSDGSFFLYSKLTVDKSRWQQGNVFSCSVMHEALHNRYTQKSLSLSP
heavy 2: not shown
light: B1 light
notes: Anti-glypican-3 IgG1 with I332E in both H chains
B4: GpH7-A44/GpH7-B3/GpL16-k0 (antibody, human IgG1, kappa)
heavy 1: B3 heavy 1
heavy 2: not shown
light: B1 light
notes: Heterodimerized anti-glypican-3 IgG1; I332E only in the GpH7-A5-derived chain (A44)
B5: GpH7-A26/GpH7-B3/GpL16-k0 (antibody, human IgG1, kappa)
heavy 1: B3 heavy 1 with G235A, E330I
heavy 2: not shown
light: B1 light
notes: G237A in one H chain
B6: GpH7-A26/GpL16-k0 (antibody, human IgG1, kappa)
heavy: B3 heavy 1 with G235A, E330I
light: B1 light
notes: G237A in both H chains
B7: GpH7-A43/GpL16-k0 (antibody, human IgG1, kappa)
heavy: B3 heavy 1 with L326D, E330I
light: B1 light
notes: L328D in both H chains
B8: GpH7-A29/GpL16-k0 (antibody, human IgG1, kappa)
heavy: B3 heavy 1 with G235L, E330I
light: B1 light
notes: G237L in both H chains
B9: GpH7-A42/GpL16-k0 (antibody, human IgG1, kappa)
heavy: B3 heavy 1 with L326E, E330I
light: B1 light
notes: L328E in both H chains
B10: GpH7-A29/GpH7-B3/GpL16-k0 (antibody, human IgG1, kappa)
heavy 1: B3 heavy 1 with G235L, E330I
heavy 2: not shown
light: B1 light
notes: G237L in one H chain
B11: GpH7-A43/GpH7-B3/GpL16-k0 (antibody, human IgG1, kappa)
heavy 1: B3 heavy 1 with L326D, E330I
heavy 2: not shown
light: B1 light
notes: L328D in one H chain
B12: GpH7-A42/GpH7-B3/GpL16-k0 (antibody, human IgG1, kappa)
heavy 1: B3 heavy 1 with L326E, E330I
heavy 2: not shown
light: B1 light
notes: L328E in one H chain
B13: GpH7-A5/GpH7-B3 variant T335_02A/GpL16-k0 (heterodimerized antibody, He Ab) (antibody, human IgG1, kappa)
heavy 1: not shown
heavy 2: not shown
light: B1 light
notes: Anti-glypican-3 IgG1; the substitution stands only in the GpH7-B3 chain, the other H chain is GpH7-A5 (D356K/H435R); Position is EU numbering; also called He Ab T335A
B14: GpH7-A5/GpH7-B3 variant Y300_08L/GpL16-k0 (heterodimerized antibody, He Ab) (antibody, human IgG1, kappa)
heavy 1: not shown
heavy 2: not shown
light: B1 light
notes: Anti-glypican-3 IgG1; substitution only in the GpH7-B3 chain; Position is EU numbering; also called He Ab Y300L
B15: GpH7-A5/GpH7-B3 variant T335_05P/GpL16-k0 (heterodimerized antibody, He Ab) (antibody, human IgG1, kappa)
heavy 1: not shown
heavy 2: not shown
light: B1 light
notes: Anti-glypican-3 IgG1; substitution only in the GpH7-B3 chain; Position is EU numbering; also called He Ab T335P
B16: GpH7-A5/GpH7-B3 variant T335_06M/GpL16-k0 (heterodimerized antibody, He Ab) (antibody, human IgG1, kappa)
heavy 1: not shown
heavy 2: not shown
light: B1 light
notes: Anti-glypican-3 IgG1; substitution only in the GpH7-B3 chain; Position is EU numbering; also called He Ab T335M
B17: GpH7-A5/GpH7-B3 variant T335_08L/GpL16-k0 (heterodimerized antibody, He Ab) (antibody, human IgG1, kappa)
heavy 1: not shown
heavy 2: not shown
light: B1 light
notes: Anti-glypican-3 IgG1; substitution only in the GpH7-B3 chain; Position is EU numbering; also called He Ab T335L
B18: GpH7-A5/GpH7-B3 variant T335_04F/GpL16-k0 (heterodimerized antibody, He Ab) (antibody, human IgG1, kappa)
heavy 1: not shown
heavy 2: not shown
light: B1 light
notes: Anti-glypican-3 IgG1; substitution only in the GpH7-B3 chain; Position is EU numbering; also called He Ab T335F
B19: GpH7-A5/GpH7-B3 variant Y300_06M/GpL16-k0 (heterodimerized antibody, He Ab) (antibody, human IgG1, kappa)
heavy 1: not shown
heavy 2: not shown
light: B1 light
notes: Anti-glypican-3 IgG1; substitution only in the GpH7-B3 chain; Position is EU numbering; also called He Ab Y300M
B20: GpH7-A5/GpH7-B3 variant Y300_07I/GpL16-k0 (heterodimerized antibody, He Ab) (antibody, human IgG1, kappa)
heavy 1: not shown
heavy 2: not shown
light: B1 light
notes: Anti-glypican-3 IgG1; substitution only in the GpH7-B3 chain; Position is EU numbering; also called He Ab Y300I
B21: GpH7-A5/GpH7-B3 variant T335_09D/GpL16-k0 (heterodimerized antibody, He Ab) (antibody, human IgG1, kappa)
heavy 1: not shown
heavy 2: not shown
light: B1 light
notes: Anti-glypican-3 IgG1; substitution only in the GpH7-B3 chain; Position is EU numbering; also called He Ab T335D

Residue numbers refer to the chain shown, from its start. Names and notes keep the numbering of the source.

T3 sequence (P08637 17-208): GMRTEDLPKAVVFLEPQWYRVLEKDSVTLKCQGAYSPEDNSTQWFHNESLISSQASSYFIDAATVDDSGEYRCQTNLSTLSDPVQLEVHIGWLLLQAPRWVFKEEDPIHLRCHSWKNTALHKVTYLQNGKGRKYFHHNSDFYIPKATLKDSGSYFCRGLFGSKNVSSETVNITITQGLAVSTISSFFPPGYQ

One assay has as its target T3, FcγRIIIa extracellular domain with C-terminal His tag (human, UniProt P08637 17-208).
T3 construct: extracellular domain; also called FcgRIIIa; 3a; not shown: His tag at the C terminus
The experiment in a line: SPR (Biacore), kinetic analysis, antibody captured, FcγRIIIa as analyte. The text has this: Then, the present inventors introduced I332E into only one H chain, and assessed whether the Tm is elevated as compared to when I332E is introduced into both H chains. Expression vectors inserted with GpH7-A44 (SEQ ID NO: 49) and GpH7-B80 (SEQ ID NO: 50) resulting from the introduction of I332E into GpH7-A5 and GpH7-B3, respectively, were constructed. They were combined with GpH7-B3, GpH7-A5, and GpL16-k0 to express and prepare the following antibodies according to the method described in Reference Example 1: the heterodimerized antibodies GpH7-A5/GpH7-B80/GpL16-k0 and GpH7-A44/GpH7-B3/GpL16-k0 in which only one of the H chains was introduced with I332E, and the homodimerized antibody GpH7-A44/GpH7-B80/GpL16-k0 in which both of the H chains were introduced with I332E. GpH7-A5/GpH7-B3/GpL16-k0 was prepared as a control. Each antibody was assessed for the FcγRIIIa-binding activity according to the method described in Reference Example 2. In addition, the antibodies were compared for the Tm of CH2 domain by thermal shift assay according to the method described in Reference Example 5 (Tables 28 and 29).
(§1) Analysis of interaction between objective antibody and the FcγR was carried out using Biacore T100 (GE Healthcare). HBS-EP+ (GE Healthcare) was used as the running buffer, and the measurement temperature was set to 25° C. Chips produced by immobilizing the antigen peptide by the amine coupling method to a Series S Sencor Chip CM5 (GE Healthcare), or alternatively, chips produced by allowing preliminarily biotinylated antigen peptides to interact with and immobilize onto a Series S Sensor Chip SA (certified) (GE Healthcare) were used. Antibodies of interest were captured onto an antigen peptide-immobilized chip, and allowed to interact to each FcγR diluted with running buffer. To regenerate and repeatedly use the chip, the antibodies captured on the chip were washed off by reacting 10 mM glycine-HCl, pH 1.5.
The FcγR-binding activity of each antibody was assessed primarily using as an indicator the FcγR-binding activity and dissociation constant for FcγR.
On the technique in general: In SPR one partner is held on a chip, and binding of the other changes the refractive index at the surface.
Regarding B1, the KD ratio was 1 fold (KD of GpH7-A5/GpH7-B3/GpL16-k0 divided by KD of the antibody) and the affinity, expressed as Kd, was 1600 nM.

For B2, the KD ratio is 3.4 fold (KD of GpH7-A5/GpH7-B3/GpL16-k0 divided by KD of the antibody) and the Kd – broadly, the free concentration of one partner at which half of the binding sites on the other are occupied at equilibrium, for simple one-to-one binding – is 470 nM.

For the molecule B3, the KD ratio was 7.1 fold (KD of GpH7-A5/GpH7-B3/GpL16-k0 divided by KD of the antibody) and binding was put at a Kd of 230 nM.

Consider B4, for which the KD ratio was 4.4 fold (KD of GpH7-A5/GpH7-B3/GpL16-k0 divided by KD of the antibody) and the Kd is 370 nM.

The next assay addresses T1, FcγRIIb. Nature of the assay: SPR (Biacore), relative binding.
Text: The constructed expression vectors were each combined with GpH7-A5 and GpL16-k0 to express heterodimerized antibodies, or they were combined with GpL16-k0 alone but not with other H chains to express homodimerized antibodies. These antibodies were expressed and purified according to the method described in Reference Example 1. The resulting purified antibodies are the following: the heterodimerized antibodies GpH7-A5/GpH7-B12/GpL16-k0, GpH7-A5/GpH7-B13/GpL16-k0, GpH7-A5/GpH7-B14/GpL16-k0, and GpH7-A5/GpH7-B15/GpL16-k0; and homodimerized antibodies GpH7-B12/GpL16-k0, GpH7-B13/GpL16-k0, GpH7-B14/GpL16-k0, and GpH7-B15/GpL16-k0. The prepared antibodies were used to assess the binding activity to each FcγR by the method described in Reference Example 2.
as §1
With B5, the binding result is given as “binds”.

Take B6: the binding result is given as “binds”.

Regarding B7, the binding result was “binds”.

On to B8, for which the binding result is “binds”.

Regarding B9, the binding result was “binds”.

For the molecule B10, the binding result is given as “binds”.

Regarding B11, the binding result was “binds”.

In the case of B12, the binding result is “binds”.

In the next assay the target is T2, FcγRIIa H (FcγRIIa, allotype with His …). The experiment in a line: SPR (Biacore T100), antibody captured on antigen-peptide chip, FcγRIIa H as analyte; response per captured antibody relative to GpH7-A5/GpH7-B3/GpL16-k0. The procedure: as §1
Take B13: the He/Con_2aH was 101 relative binding activity (control heterodimerized antibody GpH7-A5/GpH7-B3/GpL16-k0 = 100).

As for B14, the He/Con_2aH was 108 relative binding activity (control heterodimerized antibody GpH7-A5/GpH7-B3/GpL16-k0 = 100).

For the molecule B15, the He/Con_2aH was 108 relative binding activity (control heterodimerized antibody GpH7-A5/GpH7-B3/GpL16-k0 = 100).

For the molecule B16, the He/Con_2aH was 103 relative binding activity (control heterodimerized antibody GpH7-A5/GpH7-B3/GpL16-k0 = 100).

Take B17: the He/Con_2aH is 106 relative binding activity (control heterodimerized antibody GpH7-A5/GpH7-B3/GpL16-k0 = 100).

B18: the He/Con_2aH was 103 relative binding activity (control heterodimerized antibody GpH7-A5/GpH7-B3/GpL16-k0 = 100).

In the case of B19, the He/Con_2aH is 105 relative binding activity (control heterodimerized antibody GpH7-A5/GpH7-B3/GpL16-k0 = 100).

Consider B20, for which the He/Con_2aH is 108 relative binding activity (control heterodimerized antibody GpH7-A5/GpH7-B3/GpL16-k0 = 100).

For B21, the He/Con_2aH was 107 relative binding activity (control heterodimerized antibody GpH7-A5/GpH7-B3/GpL16-k0 = 100).
